Measurements published in patent publication US20090148437A1.
“And” between values parts separate entries of the source, which are not always exact repeats. Equal values may be shown once.

How the values were obtained:
[1] = biological target: human VEGF (human vascular endothelial growth factor) (human) (UniProt P15692); assay: phage-displayed dAb, expt 1 (input 10^10): no trypsin (0 µg/ml) 1 hr room temp, capture on 50 nM biotinylated rhVEGF
[2] = biological target: human VEGF (human vascular endothelial growth factor) (human) (UniProt P15692); assay: phage-displayed dAb, expt 1 (input 10^10): trypsin 100 µg/ml 1 hr room temp, then capture on 50 nM biotinylated rhVEGF + streptavidin beads
[3] = biological target: human VEGF (human vascular endothelial growth factor) (human) (UniProt P15692); assay: monoclonal phage ELISA on biotinylated hVEGF (neutravidin plate) after 100 ug/ml trypsin 1 h 37 C
[4] = biological target: human VEGF (human vascular endothelial growth factor) (human) (UniProt P15692); assay: phage-displayed dAb, expt 2 (input 10^9): trypsin 100 µg/ml 2 hr 37 C 250 rpm, then capture on biotinylated rhVEGF
[5] = biological target: human VEGF (human vascular endothelial growth factor) (human) (UniProt P15692); assay: phage-displayed dAb, expt 2 (input 10^9): no trypsin 2 hr 37 C 250 rpm, capture on biotinylated rhVEGF
[6] = biological target: human VEGF (human vascular endothelial growth factor) (human) (UniProt P15692); assay: receptor binding assay (inhibition of VEGF binding to VEGFR2)
[7] = biological target: human VEGF (human vascular endothelial growth factor) (human) (UniProt P15692); assay: phage-displayed dAb, expt 1 (input 10^10): trypsin 10 µg/ml 1 hr room temp, then capture on 50 nM biotinylated rhVEGF
[8] = biological target: human VEGF (human vascular endothelial growth factor) (human) (UniProt P15692); assay: BIAcore kinetics
[9] = biological target: human VEGF (human vascular endothelial growth factor) (human) (UniProt P15692); assay: phage-displayed dAb, expt 2 (input 10^9): trypsin 100 µg/ml 1 hr 37 C 250 rpm, then capture on biotinylated rhVEGF
TNFR1 on MRC-5 cells = TNFR1 on MRC-5 cells (UniProt P19438); assay: cell-based or functional assay
[10] = biological target: IL-R1-Fc (a fusion of IL-1RI and Fc) (UniProt P14778); assay: phage-displayed dAb: no trypsin overnight room temp, biopanning on 1 nM IL-R1-Fc
[11] = biological target: IL-R1-Fc (a fusion of IL-1RI and Fc) (UniProt P14778); assay: phage-displayed dAb: trypsin 100 µg/ml overnight room temp, then biopanning on 1 nM IL-R1-Fc
[12] = biological target: IL-R1-Fc (a fusion of IL-1RI and Fc) (UniProt P14778); assay: phage-displayed dAb: trypsin 100 µg/ml overnight 37 C, then biopanning on 1 nM IL-R1-Fc
[13] = biological target: IL-R1-Fc (a fusion of IL-1RI and Fc) (UniProt P14778); assay: phage-displayed dAb: no trypsin overnight 37 C, biopanning on 1 nM IL-R1-Fc
[14] = biological target: IL-R1-Fc (a fusion of IL-1RI and Fc) (UniProt P14778); assay: phage-displayed dAb: no trypsin 1 hr room temp, biopanning on 1 nM IL-R1-Fc
[15] = biological target: IL-R1-Fc (a fusion of IL-1RI and Fc) (UniProt P14778); assay: phage-displayed dAb: trypsin 10 µg/ml overnight 37 C, then biopanning on 1 nM IL-R1-Fc
[16] = biological target: IL-R1-Fc (a fusion of IL-1RI and Fc) (UniProt P14778); assay: phage-displayed dAb: trypsin 10 µg/ml 1 hr room temp, then biopanning on 1 nM IL-R1-Fc
[17] = biological target: IL-R1-Fc (a fusion of IL-1RI and Fc) (UniProt P14778); assay: phage-displayed dAb: trypsin 10 µg/ml overnight room temp, then biopanning on 1 nM IL-R1-Fc
IL-1R1 = IL-1R1 (UniProt P14778); assay: Receptor Binding Assay, inhibition of IL-1 binding to IL-R1 (column head says nM, cell says pM)
[18] = biological target: IL-R1-Fc (a fusion of IL-1RI and Fc) (UniProt P14778); assay: phage-displayed dAb: trypsin 100 µg/ml 1 hr room temp, then biopanning on 1 nM IL-R1-Fc

human VEGF (human vascular endothelial growth factor) (human), sequence (P15692 other isoform, or with tags, fused parts or gaps limits assumed): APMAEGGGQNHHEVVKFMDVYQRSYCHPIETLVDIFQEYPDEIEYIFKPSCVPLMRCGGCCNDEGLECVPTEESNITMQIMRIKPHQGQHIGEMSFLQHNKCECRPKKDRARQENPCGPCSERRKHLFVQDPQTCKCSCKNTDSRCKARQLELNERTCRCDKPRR
TNFR1 on MRC-5 cells, sequence (P19438 30-455 limits assumed): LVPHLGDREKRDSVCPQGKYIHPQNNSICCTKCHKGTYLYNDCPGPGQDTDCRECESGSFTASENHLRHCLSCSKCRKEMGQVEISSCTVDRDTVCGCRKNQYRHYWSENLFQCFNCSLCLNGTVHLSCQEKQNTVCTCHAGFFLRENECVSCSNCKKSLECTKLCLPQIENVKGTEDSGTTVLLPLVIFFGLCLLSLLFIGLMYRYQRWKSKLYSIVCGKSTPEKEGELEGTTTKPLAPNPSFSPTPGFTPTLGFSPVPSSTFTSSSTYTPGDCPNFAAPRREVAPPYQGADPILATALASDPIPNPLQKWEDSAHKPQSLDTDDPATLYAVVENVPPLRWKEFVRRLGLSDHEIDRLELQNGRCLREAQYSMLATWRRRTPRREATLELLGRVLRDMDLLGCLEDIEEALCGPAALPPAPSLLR
IL-1R1, sequence (P14778 18-332 limits assumed): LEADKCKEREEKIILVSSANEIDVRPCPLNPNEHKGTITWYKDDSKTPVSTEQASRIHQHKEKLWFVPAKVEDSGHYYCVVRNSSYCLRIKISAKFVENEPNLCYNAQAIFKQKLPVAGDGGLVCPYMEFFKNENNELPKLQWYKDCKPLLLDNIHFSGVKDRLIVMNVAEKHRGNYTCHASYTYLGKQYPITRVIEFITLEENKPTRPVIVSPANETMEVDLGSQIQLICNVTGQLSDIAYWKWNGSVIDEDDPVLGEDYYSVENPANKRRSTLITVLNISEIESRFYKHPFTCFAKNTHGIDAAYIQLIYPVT
IL-R1-Fc (a fusion of IL-1RI and Fc), sequence (P14778 18-336 limits assumed): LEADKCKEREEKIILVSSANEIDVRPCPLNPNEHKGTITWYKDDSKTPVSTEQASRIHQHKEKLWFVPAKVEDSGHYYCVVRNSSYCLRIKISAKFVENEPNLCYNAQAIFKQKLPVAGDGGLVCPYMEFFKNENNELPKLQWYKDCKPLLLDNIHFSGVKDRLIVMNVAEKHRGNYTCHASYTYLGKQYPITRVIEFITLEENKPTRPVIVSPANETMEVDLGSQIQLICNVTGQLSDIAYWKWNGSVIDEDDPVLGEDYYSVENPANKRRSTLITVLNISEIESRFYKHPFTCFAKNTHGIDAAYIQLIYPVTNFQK

B1: DOM15-10 (protein, from a related filing)
VL: DIQMTQSPSSLSASVGDRVTITCRASQWIGPELSWYQQKPGKAPKLLIYHTSILQSGVPSRFSGSGSGTDFTLTISSLQPEDFATYYCQQYMFQPRTFGQGTKVEIRR
B1 showed an output phage titre [1] of 7e+07, an output phage titre [2] of 1.1e+07 and an OD450 [3] of less than 0.404. The output phage titre [4] was 10000, the output phage titre [5] was 3e+08 and the EC50 [6] was 10.2 nM. It also gave an output phage titre [7] of 2.4e+08, a Kd [8] of 23.6 nM and an output phage titre [9] of 100000.

B2: DOM15-10-11 (protein, from a related filing)
VL: DIQMTQSPSSLSASVGDRVTITCRASQWIGPELRWYQQKPGKAPKLLIYHTSILQSGVPSRFSGSGSGTDFTLTISSLQPEDFATYYCQQYMFQPMTFGQGTKVEIRG
With B2 the EC50 [6] was 3.58 nM and the Kd [8] was 14.6 nM.

B3: DOM1h-131-511 (protein)
VH: EVQLLESGGGLVQPGGSLRLSCAASGFTFAHETMVWVRQAPGKGLEWVSHIPPVGQDPFYADSVKGRFTISRDNSKNTLYLQMNSLRAEDTAVYYCALLPKRGPWFDYWGQGTLVTVSS
With B3 the ND50, MRC-5 cell-based assay (IL-8 release) (TNFR1 on MRC-5 cells) was 1.98 nM and 1.71 nM and 1.46 nM and the ND50, MRC-5 cell-based assay (IL-8 release); sample DOM1h-131-511 (230307CE) (TNFR1 on MRC-5 cells) was 1.89 nM.

B4: DOM1h-131-204 (protein, from a related filing)
VH: EVQLSESGGGLVQPGGSLRLSCAASGFTFAHETMVWVRQAPGKGLEWVSHIPPDGQDPFYADSVKGRFTISRDNSKNTLYLQMNSLRAEDTAVYYCALLPNRGPWFDYWGQGTLVTVSS
Binder B4 has an ND50, MRC-5 cell-based assay (IL-8 release); sample DOM1h-131-204 (230307CE) (TNFR1 on MRC-5 cells) of 1.89 nM.

B5: DOM1h-131-203 (protein, from a related filing)
VH: EVQLWESGGGLVQPGGSLRLSCAASGFTFAHETMVWVRQAPGKGLEWVSHIPPDGQDPFYADSVKGRFTISRDNSKNTLYLQMNSLRAEDTAVYYCALLPKRGPWIDYWGQGTLVTVSS
For B5, the ND50, MRC-5 cell-based assay (IL-8 release); sample DOM1h-131-203 (230307CE) (TNFR1 on MRC-5 cells) was 2.28 nM.

B6: DOM4-130-54 (protein, from a related filing)
VL: DIQMTQSPSSLSASVGDRVTITCRASQDIYLNLDWYQQKPGKAPKLLINFGSELQSGVPSRFSGSGYGTDFTLTISSLQPEDFATYYCQPSFYFPYTFGQGTKVEIKR
For B6, the output phage titre [10] was 7.8e+09, the output phage titre [11] was 2.16e+09 and the output phage titre [12] was 2.04e+06. The output phage titre [13] was 7.2e+09, the output phage titre [14] was 6.6e+09 and the output phage titre [15] was 3.84e+08. It also gave an output phage titre [16] of 7.2e+09, an output phage titre [17] of 7.2e+09 and an IC50 (IL-1R1) of 0.28 nM. For the same binder, the output phage titre [18] was 1.8e+10.

B7: DOM4-130-201 (protein, from a related filing)
VL: DIQMTQSPSSLSASVGDRVTITCRASQDIYLNLDWYQQKPGKAPKLLIKFGSELQSGVPSRFSGSGYGTDFTLTISNLQPEDFATYYCQPSFYFPYTFGQGTKVEIKW
For B7, the IC50 (IL-1R1) was 0.257 nM.

B8: DOM4-130-202 (protein, from a related filing)
VL: DIQMTQSPSSLSASVGDRVTISCRASQDIYLNLDWYQQKPGKAPKLLISFGSELQSGVPSRFSGSGYGTDFTLTISSLQPEDSATYYCQPSFYYPYTFGQGTKVEIKR
With B8 the IC50 (IL-1R1) was 0.254 nM.
